Series [1] deals with the molecule itself. The series is described as follows: non-reducing SDS-PAGE; purified recombinant TRAP1, DTT removed, 150 mM NaCl, 50 mM TRIS, pH 7.5, 37 °C, 100 μM H2O2 for 30 min (1 nM to 100 μM in Fig. 1B); disulfide-linked band above 170 kDa; Coomassie or stain-free.
Series [2] concerns the molecule itself. The series can be described thus: SEC; Superdex 200 HR 10/30, 20 mM TRIS, 150 mM NaCl, pH 7; recombinant TRAP1 incubated with 100 μM H2O2; additional peak beside the dimer; dimers to tetramer. A general note: SEC sorts molecules by how far they enter the pores of the column.

B1: recombinant human TRAP1 C501S (natural protein, UniProt Q12931 60-704, looked up)
chain: STQTAEDKEEPLHSIISSTESVQGSTSKHEFQAETKKLLDIVARSLYSEKEVFIRELISNASDALEKLRHKLVSDGQALPEMEIHLQTNAEKGTITIQDTGIGMTQEELVSNLGTIARSGSKAFLDALQNQAEASSKIIGQFGVGFYSAFMVADRVEVYSRSAAPGSLGYQWLSDGSGVFEIAEASGVRTGTKIIIHLKSDCKEFSSEARVRDVVTKYSNFVSFPLYLNGRRMNTLQAIWMMDPKDVREWQHEEFYRYVAQAHDKPRYTLHYKTDAPLNIRSIFYVPDMKPSMFDVSRELGSSVALYSRKVLIQTKATDILPKWLRFIRGVVDSEDIPLNLSRELLQESALIRKLRDVLQQRLIKFFIDQSKKDAEKYAKFFEDYGLFMREGIVTATEQEVKEDIAKLLRYESSALPSGQLTSLSEYASRMRAGTRNIYYLSAPNRHLAEHSPYYEAMKKKDTEVLFCFEQFDELTLLHLREFDKKKLISVETDIVVDHYKEEKFEDRSPAAECLSEKETEELMAWMRNVLGSRVTNVKVTLRLDTHPAMVTVLEMGAARHFLRMQQLAKTQEERAQLLQPTLEINPRHALIKKLNQLRASEPGLAQLLVDQIYENAMIAAGLVDDPRAMVGRLNELLVKALERH
notes: Cloned in pET-26b(+); same construct as m1 with the mutation; source: E. coli BL21(DE3), purified (Ni-NTA)
Turning to B1, in series [1], the binding result is given as “binds”.

B2: recombinant human TRAP1 C527A (natural protein, UniProt Q12931 60-704, looked up)
chain: STQTAEDKEEPLHSIISSTESVQGSTSKHEFQAETKKLLDIVARSLYSEKEVFIRELISNASDALEKLRHKLVSDGQALPEMEIHLQTNAEKGTITIQDTGIGMTQEELVSNLGTIARSGSKAFLDALQNQAEASSKIIGQFGVGFYSAFMVADRVEVYSRSAAPGSLGYQWLSDGSGVFEIAEASGVRTGTKIIIHLKSDCKEFSSEARVRDVVTKYSNFVSFPLYLNGRRMNTLQAIWMMDPKDVREWQHEEFYRYVAQAHDKPRYTLHYKTDAPLNIRSIFYVPDMKPSMFDVSRELGSSVALYSRKVLIQTKATDILPKWLRFIRGVVDSEDIPLNLSRELLQESALIRKLRDVLQQRLIKFFIDQSKKDAEKYAKFFEDYGLFMREGIVTATEQEVKEDIAKLLRYESSALPSGQLTSLSEYASRMRAGTRNIYYLCAPNRHLAEHSPYYEAMKKKDTEVLFAFEQFDELTLLHLREFDKKKLISVETDIVVDHYKEEKFEDRSPAAECLSEKETEELMAWMRNVLGSRVTNVKVTLRLDTHPAMVTVLEMGAARHFLRMQQLAKTQEERAQLLQPTLEINPRHALIKKLNQLRASEPGLAQLLVDQIYENAMIAAGLVDDPRAMVGRLNELLVKALERH
notes: as for B1
B2: the binding result in series [1] is “binds”.

B3: recombinant human TRAP1 C261S (natural protein, UniProt Q12931 60-704, looked up)
chain: STQTAEDKEEPLHSIISSTESVQGSTSKHEFQAETKKLLDIVARSLYSEKEVFIRELISNASDALEKLRHKLVSDGQALPEMEIHLQTNAEKGTITIQDTGIGMTQEELVSNLGTIARSGSKAFLDALQNQAEASSKIIGQFGVGFYSAFMVADRVEVYSRSAAPGSLGYQWLSDGSGVFEIAEASGVRTGTKIIIHLKSDSKEFSSEARVRDVVTKYSNFVSFPLYLNGRRMNTLQAIWMMDPKDVREWQHEEFYRYVAQAHDKPRYTLHYKTDAPLNIRSIFYVPDMKPSMFDVSRELGSSVALYSRKVLIQTKATDILPKWLRFIRGVVDSEDIPLNLSRELLQESALIRKLRDVLQQRLIKFFIDQSKKDAEKYAKFFEDYGLFMREGIVTATEQEVKEDIAKLLRYESSALPSGQLTSLSEYASRMRAGTRNIYYLCAPNRHLAEHSPYYEAMKKKDTEVLFCFEQFDELTLLHLREFDKKKLISVETDIVVDHYKEEKFEDRSPAAECLSEKETEELMAWMRNVLGSRVTNVKVTLRLDTHPAMVTVLEMGAARHFLRMQQLAKTQEERAQLLQPTLEINPRHALIKKLNQLRASEPGLAQLLVDQIYENAMIAAGLVDDPRAMVGRLNELLVKALERH
notes: as for B1
Turning to B3, the binding result in series [1] is recorded as “binds”.

B4: recombinant human TRAP1 C501S/C527A double mutant (natural protein, UniProt Q12931 60-704, looked up)
chain: STQTAEDKEEPLHSIISSTESVQGSTSKHEFQAETKKLLDIVARSLYSEKEVFIRELISNASDALEKLRHKLVSDGQALPEMEIHLQTNAEKGTITIQDTGIGMTQEELVSNLGTIARSGSKAFLDALQNQAEASSKIIGQFGVGFYSAFMVADRVEVYSRSAAPGSLGYQWLSDGSGVFEIAEASGVRTGTKIIIHLKSDCKEFSSEARVRDVVTKYSNFVSFPLYLNGRRMNTLQAIWMMDPKDVREWQHEEFYRYVAQAHDKPRYTLHYKTDAPLNIRSIFYVPDMKPSMFDVSRELGSSVALYSRKVLIQTKATDILPKWLRFIRGVVDSEDIPLNLSRELLQESALIRKLRDVLQQRLIKFFIDQSKKDAEKYAKFFEDYGLFMREGIVTATEQEVKEDIAKLLRYESSALPSGQLTSLSEYASRMRAGTRNIYYLSAPNRHLAEHSPYYEAMKKKDTEVLFAFEQFDELTLLHLREFDKKKLISVETDIVVDHYKEEKFEDRSPAAECLSEKETEELMAWMRNVLGSRVTNVKVTLRLDTHPAMVTVLEMGAARHFLRMQQLAKTQEERAQLLQPTLEINPRHALIKKLNQLRASEPGLAQLLVDQIYENAMIAAGLVDDPRAMVGRLNELLVKALERH
notes: Cloned in pET-26b(+); same construct as m1 with the mutations; source: E. coli BL21(DE3), purified (Ni-NTA)
Consider B4, for which the binding result in series [1] is “binds”.

B5: recombinant human TRAP1 C573R (natural protein, UniProt Q12931 60-704, looked up)
chain: STQTAEDKEEPLHSIISSTESVQGSTSKHEFQAETKKLLDIVARSLYSEKEVFIRELISNASDALEKLRHKLVSDGQALPEMEIHLQTNAEKGTITIQDTGIGMTQEELVSNLGTIARSGSKAFLDALQNQAEASSKIIGQFGVGFYSAFMVADRVEVYSRSAAPGSLGYQWLSDGSGVFEIAEASGVRTGTKIIIHLKSDCKEFSSEARVRDVVTKYSNFVSFPLYLNGRRMNTLQAIWMMDPKDVREWQHEEFYRYVAQAHDKPRYTLHYKTDAPLNIRSIFYVPDMKPSMFDVSRELGSSVALYSRKVLIQTKATDILPKWLRFIRGVVDSEDIPLNLSRELLQESALIRKLRDVLQQRLIKFFIDQSKKDAEKYAKFFEDYGLFMREGIVTATEQEVKEDIAKLLRYESSALPSGQLTSLSEYASRMRAGTRNIYYLCAPNRHLAEHSPYYEAMKKKDTEVLFCFEQFDELTLLHLREFDKKKLISVETDIVVDHYKEEKFEDRSPAAERLSEKETEELMAWMRNVLGSRVTNVKVTLRLDTHPAMVTVLEMGAARHFLRMQQLAKTQEERAQLLQPTLEINPRHALIKKLNQLRASEPGLAQLLVDQIYENAMIAAGLVDDPRAMVGRLNELLVKALERH
notes: as for B1
As to B5, the binding result in series [1] was “binds”.

B6: recombinant human TRAP1 wild type, lacking the mitochondrial import sequence (natural protein, UniProt Q12931 60-704, looked up)
chain: STQTAEDKEEPLHSIISSTESVQGSTSKHEFQAETKKLLDIVARSLYSEKEVFIRELISNASDALEKLRHKLVSDGQALPEMEIHLQTNAEKGTITIQDTGIGMTQEELVSNLGTIARSGSKAFLDALQNQAEASSKIIGQFGVGFYSAFMVADRVEVYSRSAAPGSLGYQWLSDGSGVFEIAEASGVRTGTKIIIHLKSDCKEFSSEARVRDVVTKYSNFVSFPLYLNGRRMNTLQAIWMMDPKDVREWQHEEFYRYVAQAHDKPRYTLHYKTDAPLNIRSIFYVPDMKPSMFDVSRELGSSVALYSRKVLIQTKATDILPKWLRFIRGVVDSEDIPLNLSRELLQESALIRKLRDVLQQRLIKFFIDQSKKDAEKYAKFFEDYGLFMREGIVTATEQEVKEDIAKLLRYESSALPSGQLTSLSEYASRMRAGTRNIYYLCAPNRHLAEHSPYYEAMKKKDTEVLFCFEQFDELTLLHLREFDKKKLISVETDIVVDHYKEEKFEDRSPAAECLSEKETEELMAWMRNVLGSRVTNVKVTLRLDTHPAMVTVLEMGAARHFLRMQQLAKTQEERAQLLQPTLEINPRHALIKKLNQLRASEPGLAQLLVDQIYENAMIAAGLVDDPRAMVGRLNELLVKALERH
notes: Cloned in pET-26b(+); Dimer by gel filtration with DTT; an additional tetramer peak after H2O2; also called WT TRAP1; TRAP1 WT; source: E. coli BL21(DE3), purified (Ni-NTA)
Consider B6, for which, in series [2], the “stoichiometry N” value is 4.

One may read the stoichiometry N as the number of molecules, sites or subunits per partner or assembly.
